This passage reports Kd and binding signal (fold weaker than AP-1) results from patent US20070009938.

pKd: −log10 of the molar value.

What all share (experiment): EMSA
The test system of data set [1] is wt bZIP (GCN4 basic region - C/EBP leucine zipper hybrid), synthetic (artificial (yeast GCN4 / C/EBP)).
The target in data set [2] is 18A alanine mutant bZIP (GCN4 basic region - C/EBP zipper) (artificial (yeast GCN4 / C/EBP)) (UniProt P03069). The note with it: group statement.
Data set [3] has as its target 11A alanine mutant bZIP (GCN4 basic region - C/EBP zipper) (artificial (yeast GCN4 / C/EBP)) (UniProt P03069). Conditions: group statement.
The target in data set [4] is 4A alanine mutant bZIP (GCN4 basic region - C/EBP zipper) (artificial (yeast GCN4 / C/EBP)) (UniProt P03069). Conditions: group statement.
In data set [5] the test system is wt bZIP (GCN4 basic region - C/EBP leucine zipper hybrid), expressed (artificial (yeast GCN4 / C/EBP)).
[6] abbreviates: also DNase I footprinting (p65).
The mark [7] stands for this setting: higher-order bandshifts excluded.

By pKd is commonly meant the negative decadic logarithm of the Kd, by convention in mol/L. For the sequence “GATCTGGATGACTCATTTTTTTTT (double strand) [WT AP-1 (his3 flanks)]”, the pKd in data set [1] (apparent monomeric Kd, 2 mM MgCl2, 1 mM CaCl2, pH 7.5, 200 mM guanidine HCl) was 7.89.

On to “TGCAGGAACCACGTGGTGAAGGTT (double strand) [Max E-box]”, for which the binding signal (fold weaker than AP-1) in data set [2] (both E-box sites), in data set [3] (both E-box sites) and in data set [4] (both E-box sites) was 10 each time. For the same sequence, in data set [1] (saturation not achieved), the pKd was 6.08.

Consider “TGCAGGAAGACTAACCTGAAGGTT (double strand) [Partial site / NON2]”, for which, in data set [1] (apparent monomeric Kd, pH 7.5), the pKd was 6.55.

For the sequence “TGCAGGAAGCACGTAGTGAAGGTT (double strand) [HRE]”, the binding signal (fold weaker than AP-1) in data set [2] (setting [6]), in data set [3] (setting [6]) and in data set [4] (setting [6]) was 7 each time. Further, the pKd in data set [1] (saturation not achieved) was 5.85.

“TGCAGGAATCACGTGATGAAGGTT (double strand) [Arnt E-box]”: the binding signal (fold weaker than AP-1) in data set [2] (both E-box sites), in data set [3] (both E-box sites) and in data set [4] (both E-box sites) was 10 in each case. In data set [1] (saturation not achieved), this sequence showed a pKd of 6.24.

In turn, “TGCAGGAATCACTGAAGGTT (double strand) [Arnt E-box half site]” gave a pKd in data set [1] (saturation not achieved) below 5.40.

On to “TGCAGGAATGACGTCATGAAGGTT (double strand) [CRE]”, for which the pKd in data set [1] (apparent monomeric Kd, pH 7.5) is 7.92.

For the sequence “TGCAGGAATGACTCATTGAAGGTT (double strand) [AP-1]”, the pKd in data set [5] (higher-order bandshifts excluded, FIG. 6 legend gives 568 nM for wt bZIP with AP-1 in another experiment (TKMC buffer)) is 8.32; in data set [1] (apparent monomeric Kd, pH 7.5), 7.89.

As to “TGCAGGAATGACTGAAGGTT (double strand) [AP-1 half site]”, the pKd in data set [5] (setting [7]) was 7.64; in data set [1] (apparent monomeric Kd, pH 7.5), 7.08.

As for “TGCAGGAATTGCGCAATGAAGGTT (double strand) [C/EBP]”, the binding signal (fold weaker than AP-1) in data set [2] (setting [6]), in data set [3] (setting [6]) and in data set [4] (setting [6]) was 3 throughout. Further, the pKd is 7.54 in data set [5] (setting [7]) and 6.92 in data set [1] (apparent monomeric Kd, pH 7.5).

In the case of “TGCAGGAATTGCGTGATGAAGGTT (double strand) [XRE1]”, the binding signal (fold weaker than AP-1) in data set [2] (setting [6]), in data set [3] (setting [6]) and in data set [4] (setting [6]) was 7 throughout. Besides, the pKd in data set [1] (apparent monomeric Kd, pH 7.5) is 6.62.

“TGCAGGAATTGCTGAAGGTT (double strand) [C/EBP half site]”: the pKd is below 5.82 in data set [5] (saturation not achieved) and below 5.30 in data set [1] (saturation not achieved).
